This series addresses Maltose binding protein (MBP) (UniProt P0AEX9 27-396). The series is described as follows: ELASA; 500 nM aptamer; PBS (137 mM NaCl, 2.7 mM KCl, 10 mM Na2HPO4, 1.8 mM KH2PO4, pH 7.4); ELASA 30 min at 4 C after 3% BSA block; sandwich capture in PBS, temperature not stated.

1 molecule from paper PMC7249735 can be followed below.

B1: A-aptamer-ELASA (modified B11) (ssDNA)
DNA: TTCTTTTATTAGTTGATTTTTTTGATTTTGGCAGCTACTGCTTTGGGGGTGCTGAGGCGAAGGACGCAGATGAAGTCTC
modifications: 3' biotin
With B1, the binding result was “no binding”.
